The results in this text go back to paper PMC7881039.

One may read the stoichiometry N as a count of units in the complex or per binding partner.

Test [1] has as its target human cystatin C (Cst-3), E. coli expressed (human) (UniProt P01034). The experiment in a line: SEC; gel permeation on Superdex 200 in 20 mM Tris, 150 mM NaCl, pH 7.1, after cation exchange; monomer and dimer told by elution.
The target in another test is papain (UniProt P00784).
UniProt P00784, sequence (P00784 134-345): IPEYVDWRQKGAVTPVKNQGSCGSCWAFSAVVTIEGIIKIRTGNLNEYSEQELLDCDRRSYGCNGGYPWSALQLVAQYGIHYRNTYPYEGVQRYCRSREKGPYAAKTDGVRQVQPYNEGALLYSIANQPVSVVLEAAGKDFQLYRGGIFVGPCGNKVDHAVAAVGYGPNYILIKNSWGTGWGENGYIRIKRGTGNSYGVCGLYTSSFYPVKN

Substance “human cystatin C (Cst-3), E. coli expressed (from UniProt P01034 27-146) (natural protein)” returned a stoichiometry N in test [1] of 2.

In the test with papain, “murine cystatin C (Cst-3), E. coli expressed (from UniProt P21460 21-140) (natural protein)” came in with an inhibition of papain activity (colorimetric peptide substrate Z-Phe-Arg-pNA, pH 5.5) by 60 nM Cst-3 preincubated with equimolar heparin or HS hexasaccharide, against apo Cst-3 of 80%.
